Laboratory results published in paper doi:10.1101/2025.08.27.672506.

Molecular target: wild-type ectodomain of HA from A/Malaysia/1706215/2007 (H1N1) (influenza A virus A/Malaysia/1706215/2007 (H1N1))
Test: SEC

Work on “wild-type ectodomain of HA from A/Malaysia/1706215/2007 (H1N1) (domain or fragment)” yielded a stoichiometry N of 3.
